Experimental data reported in patent publication US11065314B2, “Peptides and combination of peptides for use in immunotherapy against breast cancer and other cancers” (Immatics Biotechnologies GmbH, priority 2015, dated 2021).

Tests used:
HLA-A*02:01 = HLA-A*02:01 (Homo sapiens, UniProt P04439, D140Y/D185E/D98H/E176V/E277Q/G131W/G231S/I119V/I121R/I166T/I218V/L300P/L318F/N151K/N90K/P208A/P217A/Q86G/Q94H/R138H/R169H/T345S); experiment: MHC binding assay: UV-ligand exchange with β2m ELISA; settings: binding to HLA-A*02:01, UV-ligand exchange
From the text: Candidate peptides for T cell based therapies according to the present invention were further tested for their MHC binding capacity (affinity). The individual peptide-MHC complexes were produced by UV-ligand exchange, where a UV-sensitive peptide is cleaved upon UV-irradiation, and exchanged with the peptide of interest as analyzed. Only peptide candidates that can effectively bind and stabilize the peptide-receptive MHC molecules prevent dissociation of the MHC complexes. To determine the yield of the exchange reaction, an ELISA was performed based on the detection of the light chain (β2m) of stabilized MHC complexes. The assay was performed as generally described in Rodenko et al. (Rodenko et al., 2006).
96 well MAXISorp plates (NUNC) were coated over night with 2 ug/ml streptavidin in PBS at room temperature, washed 4× and blocked for 1 h at 37° C. in 2% BSA containing blocking buffer. Refolded HLA-A*02:01/MLA-001 monomers served as standards, covering the range of 15-500 ng/ml. Peptide-MHC monomers of the UV-exchange reaction were diluted 100-fold in blocking buffer. Samples were incubated for 1 h at 37° C., washed four times, incubated with 2 ug/ml HRP conjugated anti-β2m for 1 h at 37° C., washed again and detected with TMB solution that is stopped with […]. Absorption was measured at 450 nm. Candidate peptides that show a high exchange yield (preferably higher than 50%, most preferred higher than 75%) are generally preferred for a generation and production of antibodies or fragments thereof, and/or T cell receptors or fragments thereof, as they show sufficient avidity to the MHC molecules and prevent dissociation of the MHC complexes.

[1] = tested on: CD8+ T cells of healthy HLA-A*02 donors; experiment: In vitro T-cell priming (aAPC with pMHC and anti-CD28), pMHC multimer readout; assay type: cell-based, human; settings: HLA-A*02 restricted peptides, positive wells and donors among evaluable, Table 10B
From the text: In order to obtain information regarding the immunogenicity of the TUMAPs of the present invention, the inventors performed investigations using an in vitro T-cell priming assay based on repeated stimulations of CD8+ T cells with artificial antigen presenting cells (aAPCs) loaded with peptide/MHC complexes and anti-CD28 antibody.
In order to perform in vitro stimulations by artificial antigen presenting cells loaded with peptide-MHC complex (pMHC) and anti-CD28 antibody, the inventors first isolated CD8+ T cells from fresh HLA-A*02 leukapheresis products via positive selection using CD8 microbeads (Miltenyi Biotec, Bergisch-Gladbach, Germany) of healthy donors obtained from the University clinics Mannheim, Germany, after informed consent.
PBMCs and isolated CD8+ lymphocytes were incubated in T-cell medium (TCM) until use consisting of RPMI-Glutamax (Invitrogen, Karlsruhe, Germany) supplemented with 10% heat inactivated human AB serum (PAN-Biotech, Aidenbach, Germany), 100 U/ml Penicillin/100 μg/ml Streptomycin (Cambrex, Cologne, Germany), 1 mM sodium pyruvate (CC Pro, Oberdorla, Germany), 20 μg/ml Gentamycin (Cambrex). 2.5 ng/ml IL-7 (PromoCell, Heidelberg, Germany) and 10 U/ml IL-2 (Novartis Pharma, Nümberg, Germany) were also added to the TCM at this step.
Generation of pMHC/anti-CD28 coated beads, T-cell stimulations and readout was performed in a highly defined in vitro system using four different pMHC molecules per stimulation condition and 8 different pMHC molecules per readout condition.
The purified co-stimulatory mouse IgG2a anti human CD28 Ab 9.3 (Jung et al., 1987) was chemically biotinylated using Sulfo-N-hydroxysuccinimidobiotin as recommended by the manufacturer (Perbio, Bonn, Germany). Beads used were 5.6 μm diameter streptavidin coated polystyrene particles (Bangs Laboratories, Illinois, USA).
800.000 beads/200 μl were coated in 96-well plates in the presence of 4×12.5 ng different biotin-pMHC, washed and 600 ng biotin anti-CD28 were added subsequently in a volume of 200 μl. Stimulations were initiated in 96-well plates by co-incubating 1×10^6 CD8+ T cells with 2×10^5 washed coated beads in 200 μl TCM supplemented with 5 ng/ml IL-12 (PromoCell) for 3 days at 37° C. Half of the medium was then exchanged by fresh TCM supplemented with 80 U/ml IL-2 and incubating was continued for 4 days at 37° C. This stimulation cycle was performed for a total of three times. For the pMHC multimer readout using 8 different pMHC molecules per condition, a two-dimensional combinatorial coding approach was used as previously described (Andersen et al., 2012) with minor modifications encompassing coupling to 5 different fluorochromes. Finally, multimeric analyses were performed by staining the cells with Live/dead near IR dye (Invitrogen, Karlsruhe, Germany), CD8-FITC antibody clone SK1 (BD, Heidelberg, Germany) and fluorescent pMHC multimers. For analysis, a BD LSRII SORP cytometer equipped with appropriate lasers and filters was used. Peptide specific cells were calculated as percentage of total CD8+ cells. Evaluation of multimeric analysis was done using the FlowJo software (Tree Star, Oregon, USA). In vitro priming of specific multimer+CD8+ lymphocytes was detected by comparing to negative control stimulations.

| Sequence | Peptide Exchange (peptide exchange yield) (HLA-A*02:01) | Wells positive [%] [1] |
| --- | --- | --- |
| ALAGSSPQV (listed as Homo sapiens) [SEQ ID NO: 2, HLA-A*02 peptide, source gene CNTD2] | “+++” (≥50 = +++) | “++” (20%-49% = ++) |
| GLLGFQAEA (listed as Homo sapiens) [SEQ ID NO: 24, HLA-A*02 peptide, source gene MAGED1] | “++++” (≥75% = ++++) | “++” (20%-49% = ++) |
| KMPEHISTV (listed as Homo sapiens) [SEQ ID NO: 1, HLA-A*02 peptide, source gene CILP] | “+++” (≥50 = +++) | “+” (<20% = +) |
| SLADAVEKV (listed as Homo sapiens) [SEQ ID NO: 23, HLA-A*02 peptide, source gene CCDC122] | “+++” (≥50 = +++) | “+++” (50%-69% = +++) |
| SLLTEPALV (listed as Homo sapiens) [SEQ ID NO: 21, HLA-A*02 peptide, source gene TBC1D9] | “+++” (≥50 = +++) | “++” (20%-49% = ++) |
| YIDGLESRV (listed as Homo sapiens) [SEQ ID NO: 22, HLA-A*02 peptide, source gene CREB3L4] | “+++” (≥50 = +++) | “+” (<20% = +) |
